# Results published in patent US20100310640A1.
# How the values were obtained:
# Assay in all cases: radiolabeled-peptide inhibition, purified HLA-DR
# Details in all cases: remark: other sources report otherwise
# [1] = molecular target: T1, HLA-DR DRB1*0401 (human)
# T1 chain 1: not shown
# T1 chain 2: not shown
# [2] = molecular target: HLA-DR DRB1*1501 (human)
# [3] = molecular target: T2, HLA-DR DRB4*0101 (human)
# T2 chain 1: not shown
# T2 chain 2: not shown
# [4] = molecular target: T3, HLA-DR DRB1*0701 (human)
# T3 chain 1: not shown
# T3 chain 2: not shown
# [5] = molecular target: T4, HLA-DR DRB1*0404 (human)
# T4 chain 1: not shown
# T4 chain 2: not shown
# [6] = molecular target: T5, HLA-DR DRB1*1101 (human)
# T5 chain 1: not shown
# T5 chain 2: not shown
# [7] = molecular target: T6, HLA-DR DRB1*0101 (human)
# T6 chain 1: not shown
# T6 chain 2: not shown
binder,measurement,setting,value
SLTLQGLGISWLGLR [9019.0055],IC50,[1],0.143 µM
same,IC50,[2],0.05 µM
same,IC50,[3],0.022 µM
same,IC50,[4],3.1 µM
same,IC50,[5],0.11 µM
same,IC50,[6],6.31 µM
same,IC50,[7],0.093 µM
